Substitutions are numbered along the chain they refer to. Names and notes keep the numbering of the source.
B1: GLS3000 N30R one-arm antibody (H chain CE115HA000) (antibody, human IgG1, kappa, L234A L235A, N297A, name in Kabat numbering)
heavy: QVQLVESGGGVVQPGRSLRLSCAASGFTFSNAWMHWVRQAPGKGLEWVAQIKAKSNNYATYYAESVKGRFTISRDDSKNSLYLQMNSLKTEDTAVYYCRYVHYGAYYGVDAWGQGTTVTVSSASTKGPSVFPLAPSSKSTSGGTAALGCLVKDYFPEPVTVSWNSGALTSGVHTFPAVLQSSGLYSLSSVVTVPSSSLGTQTYICNVNHKPSNTKVDKKVEPKSCDKTHTCPPCPAPEAAGGPSVFLFPPKPKDTLMISRTPEVTCVVVDVSHEDPEVKFNWYVDGVEVHNAKTKPREEQYASTYRVVSVLTVLHQDWLNGKEYKCKVSNKALPAPIEKTISKAKGQPREPQVYTLPPSRCELTKNQVSLSCAVKGFYPSDIAVEWESNGQPENNYKTTPPVLDSDGSFFLVSKLTVDKSRWQQGNVFSCSVMHEALHNHYTQKSLSLSPDYKDDDDK
chain: EPKSSDKTHTCPPCPAPELLGGPSVFLFPPKPKDTLMISRTPEVTCVVVDVSHEDPEVKFNWYVDGVEVHNAKTKPREEQYNSTYRVVSVLTVLHQDWLNGKEYKCKVSNKALPAPIEKTISKAKGQPREPQVCTLPPSRDELTKNQVSLWCLVKGFYPSDIAVEWESNGQPENNYKTTPPVLDSDGSFFLYSKLTVDKSRWQQGNVFSCSVMHEALHNRYTQKSLSLSP
light: DIVMTQSPLSLPVTPGEPASISCRSSQSLVHSNRRTYLHWYQQKPGQAPRLLIYKVSNRFSGVPDRFSGSGSGTDFTLKISRVEAEDVGVYYCGQGTQVPYTFGQGTKLEIKRTVAAPSVFIFPPSDEQLKSGTASVVCLLNNFYPREAKVQWKVDNALQSGNSQESVTEQDSKDSTYSLSSTLTLSKADYEKHKVYACEVTHQGLSSPVTKSFNRGEC
notes: one-arm antibody
B2: GLS3000 N30T one-arm antibody (H chain CE115HA000) (antibody, human IgG1, kappa, L234A L235A, N297A, name in Kabat numbering)
heavy: B1 heavy
chain: B1 chain
light: B1 light with R35T
notes: one-arm antibody
B3: GLS3000 N53A one-arm antibody (H chain CE115HA000) (antibody, human IgG1, kappa, L234A L235A, N297A, name in Kabat numbering)
heavy: B1 heavy
chain: B1 chain
light: B1 light with R35N, N58A
notes: one-arm antibody
B4: GLS3000 N30V one-arm antibody (H chain CE115HA000) (antibody, human IgG1, kappa, L234A L235A, N297A, name in Kabat numbering)
heavy: B1 heavy
chain: B1 chain
light: B1 light with R35V
notes: one-arm antibody
B5: GLS3000 Q27E one-arm antibody (H chain CE115HA000) (antibody, human IgG1, kappa, L234A L235A, N297A, name in Kabat numbering)
heavy: B1 heavy
chain: B1 chain
light: B1 light with Q27E, R35N
notes: one-arm antibody
B6: GLS3000 N30W one-arm antibody (H chain CE115HA000) (antibody, human IgG1, kappa, L234A L235A, N297A, name in Kabat numbering)
heavy: B1 heavy
chain: B1 chain
light: B1 light with R35W
notes: one-arm antibody
B7: GLS3000 N30Y one-arm antibody (H chain CE115HA000) (antibody, human IgG1, kappa, L234A L235A, N297A, name in Kabat numbering)
heavy: B1 heavy
chain: B1 chain
light: B1 light with R35Y
notes: one-arm antibody
B8: GLS3000 N53D one-arm antibody (H chain CE115HA000) (antibody, human IgG1, kappa, L234A L235A, N297A, name in Kabat numbering)
heavy: B1 heavy
chain: B1 chain
light: B1 light with R35N, N58D
notes: one-arm antibody
B9: GLS3000 N30S one-arm antibody (H chain CE115HA000) (antibody, human IgG1, kappa, L234A L235A, N297A, name in Kabat numbering)
heavy: B1 heavy
chain: B1 chain
light: B1 light with R35S
notes: one-arm antibody
B10: GLS3000 Q27D one-arm antibody (H chain CE115HA000) (antibody, human IgG1, kappa, L234A L235A, N297A, name in Kabat numbering)
heavy: B1 heavy
chain: B1 chain
light: B1 light with Q27D, R35N
notes: one-arm antibody

Molecular target: T1, CD3 epsilon homodimer protein (UniProt P07766 23-126)
T1 construct: also called CD3 (CD3 epsilon)
T1 sequence (P07766 23-126): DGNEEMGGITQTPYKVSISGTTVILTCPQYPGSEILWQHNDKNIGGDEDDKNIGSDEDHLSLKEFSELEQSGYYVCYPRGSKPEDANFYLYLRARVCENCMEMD
Test: SPR, CD3e homodimer on chip;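 further: surface plasmon resonance at 25 degrees C, antibodies flowed as analyte over CD3 epsilon homodimer amine-coupled to a CM4 chip, running buffer HBS-EP+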

ratio of amounts bound (altered form / unaltered GLS3000 antibody) | Binder
1.86 | B1
0.29 | B2
0.61 | B3
0.61 | B4
0.88 | B5
0.99 | B6
1.04 | B7
0.34 | B8
0.29 | B9
0.85 | B10
